Assay results published in the supplement of paper PMC10065799, “High-throughput profiling of sequence recognition by tyrosine kinases and SH2 domains using bacterial peptide display” (eLife, 2023).
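Further: 11-residue human phosphosite peptides and single-mutation variants displayed on the E. coli surface, counted by deep sequencing, each peptide's frequency after selection divided by its frequency in the unselected input library; frequency after pTyr selection over input frequency; kinase dosed for 20-30% of maximal phosphorylation in three min.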

These sequences were tested against FGFR3 (UniProt P22607) (assay: phosphorylation enrichment, bacterial display (enrichment ratio); higher = better substrate or ligand; peptides without Tyr show the background).
Sequence of FGFR3 (P22607 whole entry, looked up): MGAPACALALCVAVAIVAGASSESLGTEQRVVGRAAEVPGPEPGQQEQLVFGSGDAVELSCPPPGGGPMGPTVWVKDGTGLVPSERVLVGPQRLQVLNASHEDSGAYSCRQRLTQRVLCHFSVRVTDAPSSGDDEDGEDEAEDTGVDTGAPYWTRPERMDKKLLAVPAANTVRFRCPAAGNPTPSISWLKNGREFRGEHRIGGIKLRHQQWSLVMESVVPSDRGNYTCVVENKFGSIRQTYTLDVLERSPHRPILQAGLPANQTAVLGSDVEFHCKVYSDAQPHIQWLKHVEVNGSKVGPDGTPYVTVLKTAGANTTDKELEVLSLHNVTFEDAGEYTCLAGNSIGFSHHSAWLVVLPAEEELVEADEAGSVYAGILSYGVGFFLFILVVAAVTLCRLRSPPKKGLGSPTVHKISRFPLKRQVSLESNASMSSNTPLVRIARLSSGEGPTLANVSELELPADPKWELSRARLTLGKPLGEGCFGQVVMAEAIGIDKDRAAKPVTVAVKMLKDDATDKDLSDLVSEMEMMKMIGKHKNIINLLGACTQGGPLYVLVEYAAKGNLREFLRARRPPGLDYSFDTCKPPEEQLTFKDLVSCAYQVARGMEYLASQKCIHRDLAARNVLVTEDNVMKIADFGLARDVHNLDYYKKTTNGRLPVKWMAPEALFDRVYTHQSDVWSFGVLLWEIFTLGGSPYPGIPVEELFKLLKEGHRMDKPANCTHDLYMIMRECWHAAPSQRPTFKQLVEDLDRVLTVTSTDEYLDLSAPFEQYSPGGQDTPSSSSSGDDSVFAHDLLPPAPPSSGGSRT
Work on EQRRAYLEGTC [HLA-C_Y183_L180R] yielded a phosphorylation enrichment of 0.675.
DSDTDYGSGFP [RNASEH2A_Y206_L202S_YF] showed a phosphorylation enrichment of 0.605.
Sequence LVRPPYSFLAL [FOXI1_Y126_S129L_YF] has a phosphorylation enrichment of 0.866.
MMVGAYSSLEG [ECPAS_Y470_T472S] was tested, and the phosphorylation enrichment was 0.515.
With KRAAIYNPVIF [RHO_Y301_S297R_YF] the phosphorylation enrichment was 0.541.
In the case of LHAAAYRNALA [UQCRC2_Y182], the phosphorylation enrichment is reported as 0.402.
Work on AALLNYKAGRD [GRIN2A_Y737_V734L] yielded a phosphorylation enrichment of 0.494.
SHPSSYTTHPQ [NIPBL_Y195] gave a phosphorylation enrichment of 0.404.
LTGIAYSLPHW [SLC22A14_Y291] gave a phosphorylation enrichment of 0.956.
SLFNGYVFSGM [NEIL3_Y71_V76M_YF] gave a phosphorylation enrichment of 0.629.
Sequence LNEVGYDDIGG [VCP_Y203] has a phosphorylation enrichment of 1.72.
For PEADKYRLPFA [FGG_Y300_T303P_YF], the phosphorylation enrichment was 0.657.
For HSDYQYGQRSQ [PKP2_Y168_S169G], the phosphorylation enrichment was 0.457.
With QMQAAYQKVVA [HBD_Y131] the phosphorylation enrichment was 0.72.
Work on VDSAHYQLLET [DTX3L_Y385_K386Q] yielded a phosphorylation enrichment of 0.952.
With LRAGVYREKDQ [DNM2_Y626_P627R] the phosphorylation enrichment was 0.524.
For LRVHSYKSMQP [DRC7_Y516], the phosphorylation enrichment was 0.671.
Work on RQEEEYKRFSE [SFSWAP_Y133_L136F] yielded a phosphorylation enrichment of 0.918.
RNYDTYTAGLS [RHBDD1_Y264] was tested, and the phosphorylation enrichment was 0.438.
With TVLEPYTDPYY [ZC3H18_Y367_A368T] the phosphorylation enrichment was 0.797.
For FGFPGYQCKHF [TIMP3_Y177_S179C_YF], the phosphorylation enrichment was 0.535.
CTLLPYFSARV [DGKE_Y269_YF] showed a phosphorylation enrichment of 0.736.
Work on VHLFAYDWISI [BEST1_Y227_G222V_YF] yielded a phosphorylation enrichment of 1.17.
With KELAKYFKLHH [AK7_Y390_N389K_YF] the phosphorylation enrichment was 0.543.
With IGRHAYGDQYR [IDH1_Y135] the phosphorylation enrichment was 0.447.
GLAELYEYKKK [CKAP5_Y1854] gave a phosphorylation enrichment of 0.546.
NPQKSYFICLF [WAS_Y83_R86C_YF] showed a phosphorylation enrichment of 0.757.
Work on PTTKTYFPHFG [HBA1_Y43_D48G] yielded a phosphorylation enrichment of 0.556.
In the case of AHAGEYGAVAL [HBA1_Y25_E28V], the phosphorylation enrichment is reported as 0.509.

These sequences were tested on Fer (mouse) in the same assay as above.
For EQRRAYLEGTC [HLA-C_Y183_L180R], the phosphorylation enrichment was 0.498.
In the case of DSDTDYGSGFP [RNASEH2A_Y206_L202S_YF], the phosphorylation enrichment is reported as 0.492.
LVRPPYSFLAL [FOXI1_Y126_S129L_YF] was tested, and the phosphorylation enrichment was 1.22.
MMVGAYSSLEG [ECPAS_Y470_T472S] showed a phosphorylation enrichment of 0.528.
With KRAAIYNPVIF [RHO_Y301_S297R_YF] the phosphorylation enrichment was 10.4.
LHAAAYRNALA [UQCRC2_Y182] was tested, and the phosphorylation enrichment was 0.33.
Work on AALLNYKAGRD [GRIN2A_Y737_V734L] yielded a phosphorylation enrichment of 0.384.
SHPSSYTTHPQ [NIPBL_Y195] showed a phosphorylation enrichment of 0.467.
LTGIAYSLPHW [SLC22A14_Y291] showed a phosphorylation enrichment of 0.877.
For SLFNGYVFSGM [NEIL3_Y71_V76M_YF], the phosphorylation enrichment was 0.504.
LNEVGYDDIGG [VCP_Y203] showed a phosphorylation enrichment of 0.861.
For PEADKYRLPFA [FGG_Y300_T303P_YF], the phosphorylation enrichment was 0.512.
With HSDYQYGQRSQ [PKP2_Y168_S169G] the phosphorylation enrichment was 0.478.
Work on QMQAAYQKVVA [HBD_Y131] yielded a phosphorylation enrichment of 0.519.
VDSAHYQLLET [DTX3L_Y385_K386Q] was tested, and the phosphorylation enrichment was 4.07.
In the case of LRAGVYREKDQ [DNM2_Y626_P627R], the phosphorylation enrichment is reported as 0.349.
In the case of LRVHSYKSMQP [DRC7_Y516], the phosphorylation enrichment is reported as 0.565.
Work on RQEEEYKRFSE [SFSWAP_Y133_L136F] yielded a phosphorylation enrichment of 0.663.
RNYDTYTAGLS [RHBDD1_Y264] showed a phosphorylation enrichment of 0.707.
For TVLEPYTDPYY [ZC3H18_Y367_A368T], the phosphorylation enrichment was 0.433.
For FGFPGYQCKHF [TIMP3_Y177_S179C_YF], the phosphorylation enrichment was 0.473.
For CTLLPYFSARV [DGKE_Y269_YF], the phosphorylation enrichment was 0.515.
VHLFAYDWISI [BEST1_Y227_G222V_YF] was tested, and the phosphorylation enrichment was 10.4.
Sequence KELAKYFKLHH [AK7_Y390_N389K_YF] has a phosphorylation enrichment of 0.466.
IGRHAYGDQYR [IDH1_Y135] was tested, and the phosphorylation enrichment was 0.417.
GLAELYEYKKK [CKAP5_Y1854] was tested, and the phosphorylation enrichment was 0.32.
Sequence NPQKSYFICLF [WAS_Y83_R86C_YF] has a phosphorylation enrichment of 0.496.
With PTTKTYFPHFG [HBA1_Y43_D48G] the phosphorylation enrichment was 0.435.
Work on AHAGEYGAVAL [HBA1_Y25_E28V] yielded a phosphorylation enrichment of 0.672.
